Assay results: US20110160081A1, “FUNCTIONAL COMPLEMENTATION ASSAY FOR DEFINED GPCR OLIGOMERS” (priority 2008, published 2011)

How the values were obtained:
Assay in all cases: cell-based or functional assay
[1] = target: DOR-Gqi5 (delta opiate receptor fused to Gqi5) (mouse)
[2] = target: D114^3.32A/E339^6.30A/T343^6.34R-Gq5 (human)
N393A/CAM-Gqi5 (human) = target: N393A/CAM-Gqi5 (human)

Myc-tagged D2R (unfused wild type dopamine D2 receptor, short isoform), sequence (P14416 other isoform, or with tags, fused parts or gaps): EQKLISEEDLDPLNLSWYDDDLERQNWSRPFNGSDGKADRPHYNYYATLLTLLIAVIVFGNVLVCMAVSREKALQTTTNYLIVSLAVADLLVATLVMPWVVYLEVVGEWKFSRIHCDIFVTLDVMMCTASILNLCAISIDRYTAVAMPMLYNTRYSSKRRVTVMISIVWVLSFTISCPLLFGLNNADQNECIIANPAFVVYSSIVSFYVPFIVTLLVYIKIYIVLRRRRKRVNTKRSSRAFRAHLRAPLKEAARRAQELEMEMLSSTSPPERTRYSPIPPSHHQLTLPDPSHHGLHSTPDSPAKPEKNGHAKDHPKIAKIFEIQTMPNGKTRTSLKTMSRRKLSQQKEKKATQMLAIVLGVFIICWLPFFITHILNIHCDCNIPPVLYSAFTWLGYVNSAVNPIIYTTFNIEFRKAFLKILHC

activation at 5 nM DPDPE, aequorin luminescence [1]	Substance	maximal activity, aequorin luminescence [2]	potency of quinpirole in the presence of 5 nM DPDPE, aequorin luminescence [1]	aequorin luminescence on quinpirole (functional complementation) (N393A/CAM-Gqi5 (human))
10 % activation	DPDPE (peptide)			
	Myc-tagged D2R (unfused wild type dopamine D2 receptor, short isoform) (from UniProt P14416 2-443)	49.6	10 fold	3 fold
